Measured values reported in patent US20260049138A1 (Chugai, published 2026).

Target: T1, CD3ε homodimer protein (human, UniProt P07766 23-126, limits assumed)
T1 construct: also called CD3 (CD3ε)
Assay: SPR Biacore T200, CD3ε homodimer on chip;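 further: Light-chain single-residue variant antibodies injected over amine-coupled CD3ε homodimer on a CM4 chip at 25 °C, bound amount divided by that of the GLS3000-containing antibody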

T1 sequence (P07766 23-126 limits assumed): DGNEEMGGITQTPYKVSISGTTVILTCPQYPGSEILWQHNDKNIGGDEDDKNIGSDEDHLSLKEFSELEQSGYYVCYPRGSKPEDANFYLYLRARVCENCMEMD

Binder	ratio of amount bound vs unaltered GLS3000
GLS3000 N28F one-arm antibody (antibody, human IgG1, kappa, L234A L235A, N297A, name in Kabat numbering) heavy: QVQLVESGGGVVQPGRSLRLSCAASGFTFSNAWMHWVRQAPGKGLEWVAQIKAKSNNYATYYAESVKGRFTISRDDSKNSLYLQMNSLKTEDTAVYYCRYVHYGAYYGVDAWGQGTTVTVSSASTKGPSVFPLAPSSKSTSGGTAALGCLVKDYFPEPVTVSWNSGALTSGVHTFPAVLQSSGLYSLSSVVTVPSSSLGTQTYICNVNHKPSNTKVDKKVEPKSCDKTHTCPPCPAPEAAGGPSVFLFPPKPKDTLMISRTPEVTCVVVDVSHEDPEVKFNWYVDGVEVHNAKTKPREEQYASTYRVVSVLTVLHQDWLNGKEYKCKVSNKALPAPIEKTISKAKGQPREPQVYTLPPSRCELTKNQVSLSCAVKGFYPSDIAVEWESNGQPENNYKTTPPVLDSDGSFFLVSKLTVDKSRWQQGNVFSCSVMHEALHNHYTQKSLSLSPDYKDDDDK EPKSSDKTHTCPPCPAPELLGGPSVFLFPPKPKDTLMISRTPEVTCVVVDVSHEDPEVKFNWYVDGVEVHNAKTKPREEQYNSTYRVVSVLTVLHQDWLNGKEYKCKVSNKALPAPIEKTISKAKGQPREPQVCTLPPSRDELTKNQVSLWCLVKGFYPSDIAVEWESNGQPENNYKTTPPVLDSDGSFFLYSKLTVDKSRWQQGNVFSCSVMHEALHNRYTQKSLSLSP light: DIVMTQSPLSLPVTPGEPASISCRSSQSLVHSFRNTYLHWYQQKPGQAPRLLIYKVSNRFSGVPDRFSGSGSGTDFTLKISRVEAEDVGVYYCGQGTQVPYTFGQGTKLEIKRTVAAPSVFIFPPSDEQLKSGTASVVCLLNNFYPREAKVQWKVDNALQSGNSQESVTEQDSKDSTYSLSSTLTLSKADYEKHKVYACEVTHQGLSSPVTKSFNRGEC	0.46
GLS3000 N28K one-arm antibody (antibody, human IgG1, kappa, L234A L235A, N297A, name in Kabat numbering) heavy: QVQLVESGGGVVQPGRSLRLSCAASGFTFSNAWMHWVRQAPGKGLEWVAQIKAKSNNYATYYAESVKGRFTISRDDSKNSLYLQMNSLKTEDTAVYYCRYVHYGAYYGVDAWGQGTTVTVSSASTKGPSVFPLAPSSKSTSGGTAALGCLVKDYFPEPVTVSWNSGALTSGVHTFPAVLQSSGLYSLSSVVTVPSSSLGTQTYICNVNHKPSNTKVDKKVEPKSCDKTHTCPPCPAPEAAGGPSVFLFPPKPKDTLMISRTPEVTCVVVDVSHEDPEVKFNWYVDGVEVHNAKTKPREEQYASTYRVVSVLTVLHQDWLNGKEYKCKVSNKALPAPIEKTISKAKGQPREPQVYTLPPSRCELTKNQVSLSCAVKGFYPSDIAVEWESNGQPENNYKTTPPVLDSDGSFFLVSKLTVDKSRWQQGNVFSCSVMHEALHNHYTQKSLSLSPDYKDDDDK EPKSSDKTHTCPPCPAPELLGGPSVFLFPPKPKDTLMISRTPEVTCVVVDVSHEDPEVKFNWYVDGVEVHNAKTKPREEQYNSTYRVVSVLTVLHQDWLNGKEYKCKVSNKALPAPIEKTISKAKGQPREPQVCTLPPSRDELTKNQVSLWCLVKGFYPSDIAVEWESNGQPENNYKTTPPVLDSDGSFFLYSKLTVDKSRWQQGNVFSCSVMHEALHNRYTQKSLSLSP light: DIVMTQSPLSLPVTPGEPASISCRSSQSLVHSKRNTYLHWYQQKPGQAPRLLIYKVSNRFSGVPDRFSGSGSGTDFTLKISRVEAEDVGVYYCGQGTQVPYTFGQGTKLEIKRTVAAPSVFIFPPSDEQLKSGTASVVCLLNNFYPREAKVQWKVDNALQSGNSQESVTEQDSKDSTYSLSSTLTLSKADYEKHKVYACEVTHQGLSSPVTKSFNRGEC	0.44
GLS3000 N28L one-arm antibody (antibody, human IgG1, kappa, L234A L235A, N297A, name in Kabat numbering) heavy: QVQLVESGGGVVQPGRSLRLSCAASGFTFSNAWMHWVRQAPGKGLEWVAQIKAKSNNYATYYAESVKGRFTISRDDSKNSLYLQMNSLKTEDTAVYYCRYVHYGAYYGVDAWGQGTTVTVSSASTKGPSVFPLAPSSKSTSGGTAALGCLVKDYFPEPVTVSWNSGALTSGVHTFPAVLQSSGLYSLSSVVTVPSSSLGTQTYICNVNHKPSNTKVDKKVEPKSCDKTHTCPPCPAPEAAGGPSVFLFPPKPKDTLMISRTPEVTCVVVDVSHEDPEVKFNWYVDGVEVHNAKTKPREEQYASTYRVVSVLTVLHQDWLNGKEYKCKVSNKALPAPIEKTISKAKGQPREPQVYTLPPSRCELTKNQVSLSCAVKGFYPSDIAVEWESNGQPENNYKTTPPVLDSDGSFFLVSKLTVDKSRWQQGNVFSCSVMHEALHNHYTQKSLSLSPDYKDDDDK EPKSSDKTHTCPPCPAPELLGGPSVFLFPPKPKDTLMISRTPEVTCVVVDVSHEDPEVKFNWYVDGVEVHNAKTKPREEQYNSTYRVVSVLTVLHQDWLNGKEYKCKVSNKALPAPIEKTISKAKGQPREPQVCTLPPSRDELTKNQVSLWCLVKGFYPSDIAVEWESNGQPENNYKTTPPVLDSDGSFFLYSKLTVDKSRWQQGNVFSCSVMHEALHNRYTQKSLSLSP light: DIVMTQSPLSLPVTPGEPASISCRSSQSLVHSLRNTYLHWYQQKPGQAPRLLIYKVSNRFSGVPDRFSGSGSGTDFTLKISRVEAEDVGVYYCGQGTQVPYTFGQGTKLEIKRTVAAPSVFIFPPSDEQLKSGTASVVCLLNNFYPREAKVQWKVDNALQSGNSQESVTEQDSKDSTYSLSSTLTLSKADYEKHKVYACEVTHQGLSSPVTKSFNRGEC	0.39
GLS3000 N28H one-arm antibody (antibody, human IgG1, kappa, L234A L235A, N297A, name in Kabat numbering) heavy: QVQLVESGGGVVQPGRSLRLSCAASGFTFSNAWMHWVRQAPGKGLEWVAQIKAKSNNYATYYAESVKGRFTISRDDSKNSLYLQMNSLKTEDTAVYYCRYVHYGAYYGVDAWGQGTTVTVSSASTKGPSVFPLAPSSKSTSGGTAALGCLVKDYFPEPVTVSWNSGALTSGVHTFPAVLQSSGLYSLSSVVTVPSSSLGTQTYICNVNHKPSNTKVDKKVEPKSCDKTHTCPPCPAPEAAGGPSVFLFPPKPKDTLMISRTPEVTCVVVDVSHEDPEVKFNWYVDGVEVHNAKTKPREEQYASTYRVVSVLTVLHQDWLNGKEYKCKVSNKALPAPIEKTISKAKGQPREPQVYTLPPSRCELTKNQVSLSCAVKGFYPSDIAVEWESNGQPENNYKTTPPVLDSDGSFFLVSKLTVDKSRWQQGNVFSCSVMHEALHNHYTQKSLSLSPDYKDDDDK EPKSSDKTHTCPPCPAPELLGGPSVFLFPPKPKDTLMISRTPEVTCVVVDVSHEDPEVKFNWYVDGVEVHNAKTKPREEQYNSTYRVVSVLTVLHQDWLNGKEYKCKVSNKALPAPIEKTISKAKGQPREPQVCTLPPSRDELTKNQVSLWCLVKGFYPSDIAVEWESNGQPENNYKTTPPVLDSDGSFFLYSKLTVDKSRWQQGNVFSCSVMHEALHNRYTQKSLSLSP light: DIVMTQSPLSLPVTPGEPASISCRSSQSLVHSHRNTYLHWYQQKPGQAPRLLIYKVSNRFSGVPDRFSGSGSGTDFTLKISRVEAEDVGVYYCGQGTQVPYTFGQGTKLEIKRTVAAPSVFIFPPSDEQLKSGTASVVCLLNNFYPREAKVQWKVDNALQSGNSQESVTEQDSKDSTYSLSSTLTLSKADYEKHKVYACEVTHQGLSSPVTKSFNRGEC	0.42

Next, values leading:

ratio of amount bound vs unaltered GLS3000	Binder
0.44	GLS3000 N28I one-arm antibody (antibody, human IgG1, kappa, L234A L235A, N297A, name in Kabat numbering) heavy: QVQLVESGGGVVQPGRSLRLSCAASGFTFSNAWMHWVRQAPGKGLEWVAQIKAKSNNYATYYAESVKGRFTISRDDSKNSLYLQMNSLKTEDTAVYYCRYVHYGAYYGVDAWGQGTTVTVSSASTKGPSVFPLAPSSKSTSGGTAALGCLVKDYFPEPVTVSWNSGALTSGVHTFPAVLQSSGLYSLSSVVTVPSSSLGTQTYICNVNHKPSNTKVDKKVEPKSCDKTHTCPPCPAPEAAGGPSVFLFPPKPKDTLMISRTPEVTCVVVDVSHEDPEVKFNWYVDGVEVHNAKTKPREEQYASTYRVVSVLTVLHQDWLNGKEYKCKVSNKALPAPIEKTISKAKGQPREPQVYTLPPSRCELTKNQVSLSCAVKGFYPSDIAVEWESNGQPENNYKTTPPVLDSDGSFFLVSKLTVDKSRWQQGNVFSCSVMHEALHNHYTQKSLSLSPDYKDDDDK EPKSSDKTHTCPPCPAPELLGGPSVFLFPPKPKDTLMISRTPEVTCVVVDVSHEDPEVKFNWYVDGVEVHNAKTKPREEQYNSTYRVVSVLTVLHQDWLNGKEYKCKVSNKALPAPIEKTISKAKGQPREPQVCTLPPSRDELTKNQVSLWCLVKGFYPSDIAVEWESNGQPENNYKTTPPVLDSDGSFFLYSKLTVDKSRWQQGNVFSCSVMHEALHNRYTQKSLSLSP light: DIVMTQSPLSLPVTPGEPASISCRSSQSLVHSIRNTYLHWYQQKPGQAPRLLIYKVSNRFSGVPDRFSGSGSGTDFTLKISRVEAEDVGVYYCGQGTQVPYTFGQGTKLEIKRTVAAPSVFIFPPSDEQLKSGTASVVCLLNNFYPREAKVQWKVDNALQSGNSQESVTEQDSKDSTYSLSSTLTLSKADYEKHKVYACEVTHQGLSSPVTKSFNRGEC
0.46	GLS3000 N28G one-arm antibody (antibody, human IgG1, kappa, L234A L235A, N297A, name in Kabat numbering) heavy: QVQLVESGGGVVQPGRSLRLSCAASGFTFSNAWMHWVRQAPGKGLEWVAQIKAKSNNYATYYAESVKGRFTISRDDSKNSLYLQMNSLKTEDTAVYYCRYVHYGAYYGVDAWGQGTTVTVSSASTKGPSVFPLAPSSKSTSGGTAALGCLVKDYFPEPVTVSWNSGALTSGVHTFPAVLQSSGLYSLSSVVTVPSSSLGTQTYICNVNHKPSNTKVDKKVEPKSCDKTHTCPPCPAPEAAGGPSVFLFPPKPKDTLMISRTPEVTCVVVDVSHEDPEVKFNWYVDGVEVHNAKTKPREEQYASTYRVVSVLTVLHQDWLNGKEYKCKVSNKALPAPIEKTISKAKGQPREPQVYTLPPSRCELTKNQVSLSCAVKGFYPSDIAVEWESNGQPENNYKTTPPVLDSDGSFFLVSKLTVDKSRWQQGNVFSCSVMHEALHNHYTQKSLSLSPDYKDDDDK EPKSSDKTHTCPPCPAPELLGGPSVFLFPPKPKDTLMISRTPEVTCVVVDVSHEDPEVKFNWYVDGVEVHNAKTKPREEQYNSTYRVVSVLTVLHQDWLNGKEYKCKVSNKALPAPIEKTISKAKGQPREPQVCTLPPSRDELTKNQVSLWCLVKGFYPSDIAVEWESNGQPENNYKTTPPVLDSDGSFFLYSKLTVDKSRWQQGNVFSCSVMHEALHNRYTQKSLSLSP light: DIVMTQSPLSLPVTPGEPASISCRSSQSLVHSGRNTYLHWYQQKPGQAPRLLIYKVSNRFSGVPDRFSGSGSGTDFTLKISRVEAEDVGVYYCGQGTQVPYTFGQGTKLEIKRTVAAPSVFIFPPSDEQLKSGTASVVCLLNNFYPREAKVQWKVDNALQSGNSQESVTEQDSKDSTYSLSSTLTLSKADYEKHKVYACEVTHQGLSSPVTKSFNRGEC
